Where no end group is shown, it is not given here. The star is where a group is joined. Thia = thiazolidide, C1CN(*)CS1
Tests used:
[1] = target: T1, porcine kidney DP IV, wild type (porcine, UniProt P22411 38-766, natively glycosylated (Asn279 among others, as seen in the crystal)); assay: photometric assay, competition with the standard substrate GP-4NA
T1 construct: In the crystal a 2-2-2 symmetric tetramer (dimer of dimers); also called p wt DP IV; p wt
Method: (§1) In order to measure the inhibition constant Kᵢ a photometric assay was used The peptides were measured as competitors of the standard substrate GP-4-Nitroanilide. Three different substrate concentrations (0.4 mM to 0.05 mM) were combined with 8 different competitor concentrations (0.5 mM to 2 μM). […] Experiments were carried out under standard conditions: 30° C. in pH 7.6 40 mM HEPES (Sigma-Aldrich) buffer. Nitroaniline production was monitored using a HTS 7000+ microplate reader (PerkinElmer, Überlingen, Germany).

[2] = target: T1, porcine kidney DP IV, wild type; assay: MALDI-TOF MS, inhibition of DP IV-catalyzed truncation of the substrate GLP-1 after preincubation with TFTSDY
[3] = target: T1, porcine kidney DP IV, wild type; assay: MALDI-TOF MS, inhibition of DP IV-catalyzed truncation of the substrate GIP after preincubation with TFTSDY
[4] = target: T1, porcine kidney DP IV, wild type; assay: MALDI-TOF MS, inhibition of DP IV-catalyzed truncation of the substrate NPY after preincubation with TFTSDY
[5] = target: T1, porcine kidney DP IV, wild type; assay: MALDI-TOF MS, inhibition of DP IV-catalyzed truncation of the substrate RANTES1-15 after preincubation with TFTSDY
[6] = target: DP IV; assay: photometric assay, competition with the standard substrate GP-4-nitroanilide; source of DP IV not stated
[7] = target: T1, porcine kidney DP IV, wild type; assay: MALDI-TOF MS, inhibition of DP IV-catalyzed truncation of the substrate glucagon after preincubation with TFTSDY
[8] = target: T2, recombinant human DP IV, mutation R560A (human, UniProt P27487 37-766); assay: photometric assay, competition with the standard substrate GP-4NA
T2 construct: range 37-766; Same Pichia construct as the wild type, single mutation by site-directed mutagenesis; also called mu 15 DP IV; mu 15
Method: as §1

[9] = target: T3, recombinant human DP IV, mutation W629A (human, UniProt P27487 37-766); assay: as above
T3 construct: range 37-766; Same Pichia construct as the wild type, single mutation by site-directed mutagenesis; also called mu 16 DP IV; mu 16
T3 sequence (P27487 other isoform, or with tags, fused parts or gaps W629A W629A limits assumed): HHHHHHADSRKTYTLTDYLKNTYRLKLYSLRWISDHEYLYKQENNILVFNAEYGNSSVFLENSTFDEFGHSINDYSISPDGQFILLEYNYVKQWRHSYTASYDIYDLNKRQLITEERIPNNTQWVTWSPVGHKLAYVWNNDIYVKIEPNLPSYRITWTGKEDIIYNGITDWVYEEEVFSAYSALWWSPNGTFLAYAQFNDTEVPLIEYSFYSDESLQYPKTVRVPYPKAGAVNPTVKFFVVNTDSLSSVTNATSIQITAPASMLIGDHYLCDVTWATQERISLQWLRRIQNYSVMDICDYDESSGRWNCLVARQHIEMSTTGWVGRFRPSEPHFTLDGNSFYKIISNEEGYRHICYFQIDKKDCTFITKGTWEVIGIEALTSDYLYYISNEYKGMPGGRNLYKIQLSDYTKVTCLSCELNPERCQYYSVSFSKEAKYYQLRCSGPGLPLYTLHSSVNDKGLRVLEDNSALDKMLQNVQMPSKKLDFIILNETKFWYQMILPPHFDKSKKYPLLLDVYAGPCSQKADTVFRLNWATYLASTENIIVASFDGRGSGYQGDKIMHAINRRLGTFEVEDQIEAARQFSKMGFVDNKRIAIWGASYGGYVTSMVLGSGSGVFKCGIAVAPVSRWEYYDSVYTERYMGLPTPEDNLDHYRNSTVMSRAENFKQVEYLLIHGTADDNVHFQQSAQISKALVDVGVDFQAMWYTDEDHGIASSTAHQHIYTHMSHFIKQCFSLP
Method: as §1

T1 sequence (P22411 38-766): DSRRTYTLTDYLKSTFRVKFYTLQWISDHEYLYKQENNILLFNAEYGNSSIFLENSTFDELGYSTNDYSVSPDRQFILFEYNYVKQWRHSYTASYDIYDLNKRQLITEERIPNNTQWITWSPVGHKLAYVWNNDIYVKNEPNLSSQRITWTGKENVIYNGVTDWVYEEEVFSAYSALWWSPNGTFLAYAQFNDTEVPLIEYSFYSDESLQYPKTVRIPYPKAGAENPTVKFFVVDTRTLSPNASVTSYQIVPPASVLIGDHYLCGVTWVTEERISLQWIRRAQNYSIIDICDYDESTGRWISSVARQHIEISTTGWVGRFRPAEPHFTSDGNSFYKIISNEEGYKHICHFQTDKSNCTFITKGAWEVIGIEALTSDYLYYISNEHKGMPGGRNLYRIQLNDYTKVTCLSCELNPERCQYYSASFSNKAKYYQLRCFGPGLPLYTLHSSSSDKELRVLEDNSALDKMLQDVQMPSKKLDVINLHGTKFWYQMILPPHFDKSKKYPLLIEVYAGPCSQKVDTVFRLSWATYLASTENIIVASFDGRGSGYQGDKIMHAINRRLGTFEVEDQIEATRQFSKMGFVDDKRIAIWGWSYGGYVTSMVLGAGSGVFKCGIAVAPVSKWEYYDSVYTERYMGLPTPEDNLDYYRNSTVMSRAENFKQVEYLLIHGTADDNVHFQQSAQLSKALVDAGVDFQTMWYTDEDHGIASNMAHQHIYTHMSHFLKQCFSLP
T2 sequence (P27487 other isoform, or with tags, fused parts or gaps R560A R560A limits assumed): as the sequence (P27487 other isoform, or with tags, fused parts or gaps W629A W629A limits assumed) above, with R530A, A599W counted along it
Chain of DP IV (chain, as listed by the source): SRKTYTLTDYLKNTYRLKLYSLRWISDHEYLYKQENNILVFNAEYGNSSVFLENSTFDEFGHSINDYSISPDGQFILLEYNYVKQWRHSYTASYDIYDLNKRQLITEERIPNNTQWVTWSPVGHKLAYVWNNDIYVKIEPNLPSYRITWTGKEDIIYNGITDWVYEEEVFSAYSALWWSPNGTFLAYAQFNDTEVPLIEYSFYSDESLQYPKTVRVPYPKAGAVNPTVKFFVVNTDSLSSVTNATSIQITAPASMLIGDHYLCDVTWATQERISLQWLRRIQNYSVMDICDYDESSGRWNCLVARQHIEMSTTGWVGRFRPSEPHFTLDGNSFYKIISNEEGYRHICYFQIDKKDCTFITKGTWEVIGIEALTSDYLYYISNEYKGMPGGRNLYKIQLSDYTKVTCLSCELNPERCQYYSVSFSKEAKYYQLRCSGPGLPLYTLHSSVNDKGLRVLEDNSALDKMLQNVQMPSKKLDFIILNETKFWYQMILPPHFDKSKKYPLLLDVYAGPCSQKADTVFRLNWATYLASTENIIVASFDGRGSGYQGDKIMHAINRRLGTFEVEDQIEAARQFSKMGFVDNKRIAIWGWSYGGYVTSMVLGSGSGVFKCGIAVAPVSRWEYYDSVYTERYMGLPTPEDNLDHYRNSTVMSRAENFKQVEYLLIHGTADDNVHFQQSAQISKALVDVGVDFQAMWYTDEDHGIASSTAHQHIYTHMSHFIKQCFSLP

B1: PACAP-27 (peptide, UniProt P18509 132-158, looked up)
peptide: HSDGIFTDSYSRYRKQMAVKKYLAAVL
modifications: ends and bridges not checked
notes: range 132-158; also called PACAP(1-27)
With B1 the Ki [1] was 54.3 µM.

B2: hexapeptide TFTSDY (peptide)
peptide: TFTSDY
notes: also called glucagon5-10; T(5)-F-T-S-D-Y
Work on B2 yielded a Ki [2] of 13.7 µM, a Ki [3] of 65.9 µM and a Ki [4] of 17.2 µM. For the same binder, the Ki [5] was 12300 µM, the Ki [6] was 710 µM and the Ki [7] was 6.8 µM.

B3: YAESTF amide (peptide)
peptide: YAESTF-NH2
For B3, the Ki [8] was 1.14 µM and the Ki [9] was 1.06 µM.

B4: Transp 01 (RRLSYSRRRF-E-Thia) (peptide)
peptide: RRLSYSRRRFE-Thia
modifications: also: linkage of decapeptide to Glu not explained
Work on B4 yielded a Ki [8] of 0.0769 µM and a Ki [9] of 0.0855 µM.

— patent publication US20060234940A1 (OSI PHARMACEUTICALS, published 2006)
